Measurements as given in IntAct's records for PubMed 17290217.

B1: Phosphatidylinositol 4-phosphate 5-kinase type-1 gamma (Mus musculus), O70161 (parent)
chain: MELEVPDEAESAEAGAVTAEAAWSAESGAAAGMTQKKAGLAEAPLVTGQPGPGHGKKLGHRGVDASGETTYKKTTSSTLKGAIQLGIGYTVGNLSSKPERDVLMQDFYVVESIFFPSEGSNLTPAHHFQDFRFKTYAPVAFRYFRELFGIRPDDYLYSLCNEPLIELSNPGASGSVFYVTSDDEFIIKTVMHKEAEFLQKLLPGYYMNLNQNPRTLLPKFYGLYCVQSGGKNIRVVVMNNVLPRVVKMHLKFDLKGSTYKRRASKKEKEKSLPTYKDLDFMQDMPEGLLLDSDTFGALVKTLQRDCLVLESFKIMDYSLLLGVHNIDQQERERQAEGAQSKADEKRPVAQKALYSTAMESIQGGAARGEAIETDDTMGGIPAVNGRGERLLLHIGIIDILQSYRFIKKLEHTWKALVHDGDTVSVHRPSFYAERFFKFMSSTVFRKSSSLKSSPSKKGRGALLAVKPLGPTAAFSASQIPSEREDVQYDLRGARSYPTLEDEGRPDLLPCTPPSFEEATTASIATTLSSTSLSIPERSPSDTSEQPRYRRRTQSSGQDGRPQEEPHAEDLQKITVQVEPVCGVGVVPKEEGAGVEVPPCGASAAASVEIDAASQASEPASQASDEEDAPSTDIYFPTDERSWVYSPLHYSARPASDGESDT

Variants of: B1
Conditions: with Ap2b1, Q9DBG3-1
Sequence of Ap2b1, Q9DBG3-1 (Q9DBG3 whole entry): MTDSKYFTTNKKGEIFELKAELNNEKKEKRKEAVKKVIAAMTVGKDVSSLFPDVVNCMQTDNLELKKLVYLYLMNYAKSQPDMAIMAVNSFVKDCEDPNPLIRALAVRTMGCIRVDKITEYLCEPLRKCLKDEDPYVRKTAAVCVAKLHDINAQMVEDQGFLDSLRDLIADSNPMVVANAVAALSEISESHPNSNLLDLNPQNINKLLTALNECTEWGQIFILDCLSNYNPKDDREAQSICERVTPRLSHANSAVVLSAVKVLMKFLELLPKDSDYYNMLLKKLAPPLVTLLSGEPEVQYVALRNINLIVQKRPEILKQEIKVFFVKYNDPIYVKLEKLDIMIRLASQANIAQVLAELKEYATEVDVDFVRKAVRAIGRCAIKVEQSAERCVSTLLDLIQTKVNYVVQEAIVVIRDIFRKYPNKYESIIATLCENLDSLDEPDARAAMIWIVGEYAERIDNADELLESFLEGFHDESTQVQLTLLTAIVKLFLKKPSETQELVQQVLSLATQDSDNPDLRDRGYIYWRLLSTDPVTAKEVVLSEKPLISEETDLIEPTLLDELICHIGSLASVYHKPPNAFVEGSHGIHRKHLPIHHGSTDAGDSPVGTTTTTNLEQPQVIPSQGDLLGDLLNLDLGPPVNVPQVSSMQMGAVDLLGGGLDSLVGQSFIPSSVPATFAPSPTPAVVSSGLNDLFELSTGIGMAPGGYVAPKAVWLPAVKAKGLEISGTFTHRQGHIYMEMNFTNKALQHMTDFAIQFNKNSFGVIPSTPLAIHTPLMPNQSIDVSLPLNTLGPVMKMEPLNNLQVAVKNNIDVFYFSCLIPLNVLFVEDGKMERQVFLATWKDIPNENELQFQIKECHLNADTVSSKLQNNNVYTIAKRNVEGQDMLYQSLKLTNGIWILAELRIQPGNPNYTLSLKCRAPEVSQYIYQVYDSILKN

effect of a mutation on the interaction | Variant
disrupting interaction | D277A

Variants of: B1
Conditions: with Ap2b1, Q9DBG3-2
Sequence of Ap2b1, Q9DBG3-2 (Q9DBG3 other isoform, or with tags, fused parts or gaps): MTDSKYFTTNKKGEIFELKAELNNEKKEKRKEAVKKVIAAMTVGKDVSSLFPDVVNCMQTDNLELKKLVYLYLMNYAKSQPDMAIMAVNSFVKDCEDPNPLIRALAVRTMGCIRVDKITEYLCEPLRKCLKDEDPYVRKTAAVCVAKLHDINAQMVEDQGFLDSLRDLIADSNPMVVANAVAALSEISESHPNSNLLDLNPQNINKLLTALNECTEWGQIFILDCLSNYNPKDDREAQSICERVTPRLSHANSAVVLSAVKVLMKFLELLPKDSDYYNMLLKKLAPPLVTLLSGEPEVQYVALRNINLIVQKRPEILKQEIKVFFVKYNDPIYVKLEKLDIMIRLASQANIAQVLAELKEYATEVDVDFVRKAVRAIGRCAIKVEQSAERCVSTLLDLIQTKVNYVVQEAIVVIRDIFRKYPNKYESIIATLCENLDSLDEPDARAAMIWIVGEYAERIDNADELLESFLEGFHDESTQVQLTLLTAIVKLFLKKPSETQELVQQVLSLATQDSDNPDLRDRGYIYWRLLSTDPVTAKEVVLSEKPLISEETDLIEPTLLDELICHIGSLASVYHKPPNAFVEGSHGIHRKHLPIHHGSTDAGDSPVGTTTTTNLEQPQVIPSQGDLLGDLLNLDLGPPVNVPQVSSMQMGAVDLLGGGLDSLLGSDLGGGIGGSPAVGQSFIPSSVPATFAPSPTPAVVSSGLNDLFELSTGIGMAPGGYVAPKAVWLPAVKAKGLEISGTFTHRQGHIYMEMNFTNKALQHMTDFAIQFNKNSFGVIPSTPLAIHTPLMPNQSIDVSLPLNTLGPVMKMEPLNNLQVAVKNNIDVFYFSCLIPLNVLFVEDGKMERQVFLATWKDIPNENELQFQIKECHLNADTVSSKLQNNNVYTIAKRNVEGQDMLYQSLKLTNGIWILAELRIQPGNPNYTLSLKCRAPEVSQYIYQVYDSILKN

effect of a mutation on the interaction | Variant
disrupting interaction | S645E

Variants of: B1
Conditions: with Ap2b1, Q9DBG3-1
Remark: another data set of the same source

effect of a mutation on the interaction | Variant
disrupting interaction | S645E
